For the data set, the target named is T1, gold nanoparticle linked S18 peptide.
T1 chain: CGGKETAAAKFERQHMDS

B1: S-protein of Ribonuclease S (protein)
chain: SSSNYCNQMMKSRNLTKDRCKPVNTFVHESLADVQAVCSQKNVACKNGQTNCYQSYSTMSITDCRETGSSKYPNCAYKTTQANKHIIVACEGNPYVPVHFDASV
As to B1, the “RF power level at 50% RNase S activity (poly C hydrolysis)” value is reported as -4 dBm at the 50% activity; the “RNase S activity (digested polyC, absorption at 280 nm) with RFMF on and off” value was “The activity with the RFMF on was less than with the RFMF off”.

The record behind these values is patent publication US20020119572.
